Measurements from publication PMC3688963, “Biochemical Characterization of Hypothetical Proteins from Helicobacter pylori” (PLoS ONE, 2013).

Key:
[1] = substrate: Nc1nc2c(ncn2[C@@H]2O[C@H](COP(=O)(O)OP(=O)(O)OP(=O)(O)O)[C@@H](O)[C@H]2O)c(=O)[nH]1; experiment: phosphate release, malachite green; assay type: biochemical, Helicobacter pylori; details: 10 mM MgCl2, 10% glycerol, 100 mM sodium acetate pH 6.0, 30°C
Source text: phosphate release, malachite green on HP1079

[2] = substrate: [H][C@@]12COP(=O)(O)O[C@@]1([H])[C@@H](O)[C@H](n1cnc3c(=O)[nH]c(N)nc31)O2; experiment: alkaline phosphatase-coupled phosphate release, malachite green; assay type: biochemical, Helicobacter pylori; details: 0.1 mM MnCl2, pH 4.0-4.5, 30°C
[3] = substrate: O=[N+]([O-])c1ccc(OP(=O)(O)Oc2ccc([N+](=O)[O-])cc2)cc1; experiment: purified protein; assay type: biochemical, Helicobacter pylori; details: 1.0 mM MnCl2, 100 mM sodium citrate pH 4.5 (4.0 in Figure 1 legend), 30°C
[4] = substrate: Nc1ncnc2nc[nH]c12; experiment: purified protein; assay type: biochemical, Helicobacter pylori; details: 100 mM HEPES pH 7.5, 30°C, native protein
[5] = substrate: Cc1cc(=O)oc2cc(NC(=O)[C@H](CCCNC(=N)N)NC(=O)[C@@H](N)Cc3ccccc3)ccc12; experiment: purified protein; details: 100 mM sodium citrate pH 4.5, 30°C, 5 mM CaCl2, 0.1% Brij
[6] = substrate: Nc1nc2c(ncn2[C@@H]2O[C@H](COP(=O)(O)OP(=O)(O)OP(=O)(O)O)[C@@H](O)[C@H]2O)c(=O)[nH]1; experiment: fluorimetric neopterin detection after iodine oxidation and alkaline phosphatase; assay type: biochemical, Helicobacter pylori; details: 100 mM sodium citrate pH 4.0, 30°C, 2.5 mM EDTA
Source text: fluorimetric neopterin detection after iodine oxidation and alkaline phosphatase on HP0959

B1: HP1079 (Helicobacter pylori 26695) (protein)
chain: MIQSVRIKNFKNFKNTKIDGFTKLNIITGQNNAGKSNLLEALYYLVGKSMHPCTNVLEIYDNIRKEPLTSESKSLMFYGLDTKEEIQIVTTLDNNQTLDLQIKFIASENQKVIESQIIPTAEQTQMSSQLNFTLKKNNEEIYNDHLNIAKVPNFPPIPNQSGYNRQFKNFDSNQLQKLLPFESAVIIPSDVVYRQAHMIQAVSKICSNNQLEEELNKHLNQFDNNIQAISFNTNNQLKLKVKDIKEKVPLSVFGDGLKKYLHIVSAFMADNAKTIYIDEVENGLHFSRMRLLLKNTIDFINNNKDGNLQVFMTTHSQEFIEILDQVIREKDFAHQTKLFCLKQDDQYVIPRTYYGENLEYYFENEENLFG
notes: native protein captured with GTP-coated nano-particles; His6 recombinant also made
[1]
  Km: 0.58 ± 0.05 mM
  kcat: 0.0095 ± 0.002 s⁻¹
  kcat/Km: 20 M⁻¹ s⁻¹

B2: HP1042 (Helicobacter pylori 26695) (protein)
chain: MMQVYHLSHIDLDGYACQLVSKQFFKNIQCYNANYGREVSARIYEILNAIAQSKESEFLILVSDLNLNLNEAEYLQDKIQEHRLQNKNIQIQLLDHHISGKEVAESFHWYFLDINRCATKIVYEFLKKHYAILEPKNTTWLEPLVEMVNSVDIWDTQGYGFELGKVCMRMINQSSELNRFMFDDENRNYKLKLLEEVKNYLFLENAPVAYDNDLFKLKKIALGGDPDAETMDNISSNAQTHLLSLKKHDCSVYYQDKKGFLSYSMGGISVLANLFLTQNPDFDFYMDVNAKGNVSLRANGNCDVCELSQMCFNGGGHRNASGGKIDGFRESFNYRDIKEQIEEIFNNA
notes: native protein captured with cAMP-coated nano-particles; His6 recombinant also made
[2]
  Km: 0.82 ± 0.15 mM
  Vmax: 5130 µM/min
  kcat: 15.9 ± 1.37 s⁻¹
  kcat/Km: 19500 M⁻¹ s⁻¹
[3]
  Km: 0.53 ± 0.04 mM
  Vmax: 1130 µM/min
  kcat: 18.1 ± 0.2 s⁻¹
  kcat/Km: 34100 M⁻¹ s⁻¹

B3: HP0267 (native protein) (Helicobacter pylori 26695) (protein)
chain: MQEIIGASLVFLCNEKCEVLEDYGVVFDEKIVEIGDYQSLTLKYPHLKAQFFENSVLLPAFINAHTHFEFSNNKASFDYGSFSGWLGSVLNNGGAILENCQGAIQNAISTQLKSGVGSVGAISNHLIEVNLLKESPLNAVVFLEFLGSSYSLEKLKAFEAKFKELKDLEDKKLKAALAVHAPYSVQKDMALSVIQLAKDSQSLLSTHFLESLEELEWVENSKGWFENFYQHFLKESHFKSLYKGANDYIDMFKDTHTLFVHNQFASLEALKRIKSQVKNAFLITCPFSNRLLSGQALDLERTKEAGLSVSVATDGLSSNISLSLLDELRAFLLTHNMPLLELAKIALLGATRHGAKALALNNGEIEANKRADLSVFGFNEKFTKEQAILQFLLHAKEVECLFLGGKRVI
notes: native protein captured from H. pylori lysate with adenine-coated gold nano-particles, gel filtration; no tag
[4]
  Km: 2.04 ± 0.16 mM
  Vmax: 3 µM/min
  kcat: 0.00783 ± 0.00217 s⁻¹
  kcat/Km: 4 M⁻¹ s⁻¹

B4: HP1037 (Helicobacter pylori 26695) (protein)
chain: MKGLERESHFTLNENAMFFECAYSCDNALFLQLDDRSFFITDSRYTQEAKESVQPKNGVLAEVVESSDLVQSAIDLIVKSSVKKLFFDPNQVNLQTYKRLNSALGDKVALEGVPSYHRQKRIIKNEHEIQLLKKSQALNVEAFENFAEYVKKIFDEKESLSERYLQHKVKDFLTREGVYDLSFEPILALNANASKPHALPSAKDFLKAEHSILLDMGIKYERYCSDRTRTAFFDPKDFVFKREQSFKDKERQKIYDIVKEAQEKAISGIRAGMTGKEADSLARGVISDYGYGQYFTHSTGHGIGLDIHELPYISSRSETILEEGMVFSVEPGIYIPGFFGVRIEDLVVIKNSRSELL
[5]
  Km: 7.43 ± 0.36 mM
  Vmax: 750 µM/min
  kcat: 0.17 s⁻¹
  kcat/Km: 20 M⁻¹ s⁻¹

B5: HP0959 (Helicobacter pylori 26695) (protein)
chain: MALVKEVLVVLNRLSPFELQESWDNSGLNVGSENSEFSEIVACLEITLKIALNAPQNALIITHHPLIFKPLKTLNDEIYPGNILKILIQKNVSVISMHTNFDKTHLNKHFAHALLEFDGLVEKGLMLVKENANIEFDALVKKIKSSLGVGSLACVKSSQTIKDLAFVCGSGASMFSSLKAQSCLITGDVKYHDAMIAQSLGISLIDATHYYSERGFALIVAEILHSFNYLVTIENFKNPLQII
notes: native protein captured with GTP/dihydroneopterin triphosphate-coated nano-particles (co-captured with HP0803); His6 recombinant also active
[6]
  Km: 0.040 ± 0.005 mM
  Vmax: 1420 µM/min
  kcat: 43.2 ± 0.483 s⁻¹
  kcat/Km: 1.08e+06 M⁻¹ s⁻¹
